In article PMC4272287 (PLoS ONE, 2014):
Substitutions are numbered along the chain they refer to. In names and notes the source's numbering stands.

B1: sdAb A3, anti-Staphylococcal Enterotoxin B single domain antibody (VHH)
VHH: EVQLVESGGGLVQAGDSLRLSCTASGRTFSRAVMGWFRQAPGKEREFVAAISAAPGTAYYAFYADSVRGRFSISADSAKNTVYLQMNSLKPEDTAVYYCAADLKMQVAAYMNQRSVDYWGQGTQVTVSS
notes: also called wild type sdAb A3
B2: sdAb A3 Construct 1 (A49C I73C) (VHH)
VHH: B1 VHH with A49C, I73C
notes: Keeps C22/C99
B3: sdAb A3 Construct 2 (A50C A108C) (VHH)
VHH: B1 VHH with A50C, A108C
notes: Keeps C22/C99
B4: sdAb A3 Construct 4 (Q3C Y118C) (VHH)
VHH: B1 VHH with Q3C, Y118C
notes: Keeps C22/C99
B5: sdAb A3 Construct 3 (V33C M105C) (VHH)
VHH: B1 VHH with V33C, M105C
notes: Keeps C22/C99

What follows are binders tested against T1, Staphylococcal enterotoxin B (Staphylococcus aureus, strain , UniProt P01552) (assay: SPR). Conditions: both partners purified.
T1 construct: source: bought: Toxin technologies
T1 sequence (P01552 28-266): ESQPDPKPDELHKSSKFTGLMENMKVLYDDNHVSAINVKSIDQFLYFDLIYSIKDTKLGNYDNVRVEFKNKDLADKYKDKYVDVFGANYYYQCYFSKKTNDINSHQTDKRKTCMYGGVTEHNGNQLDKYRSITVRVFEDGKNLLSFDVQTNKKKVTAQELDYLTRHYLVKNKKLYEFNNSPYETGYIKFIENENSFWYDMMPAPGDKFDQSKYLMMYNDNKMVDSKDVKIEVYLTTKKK
B1 showed a Kd of 0.23 nM. With B2 the Kd was 0.66 nM. B3 showed a Kd of 0.06 nM. B4 was tested, and the Kd was 0.06 nM. B5 gave a Kd of 0.21 nM.
